Measured values from the supplement of paper PMC10724198.
± gives the standard deviation of the averaged measurements.

What follows are sequences tested on Saccharomyces cerevisiae (assay: protein stability index of tFT-peptide fusion (C-terminal peptide) (PSI (0-1 scale)); higher = more stable (slower turnover)). Settings: genetic background: wild type; temperature: 30 C.
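Note: PSI is a weighted mean of sequencing reads over stability bins, variants kept only with over 10 reads, mCherry proximal and sfGFP distal, peptide attached via GGGS linker.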

Sequence	protein stability index
VAGLARVSLHGF	0.6746 ± 0.0052
VAGWGAGREAAY	0.657 ± 0.026
VALAPLRDVPSG	0.681 ± 0.043
VALLLGSRFDFT	0.6627 ± 0.0023
VANRFRSILVRR	0.599 ± 0.023
VAPPRLSHGAPY	0.545 ± 0.061
VASKVNLPVWFW	0.702 ± 0.021
VAVGIEGGGWGV	0.764 ± 0.032
VAVRGGCGDWGR	0.689 ± 0.021
VCCAQVCICCLR	0.58 ± 0.017
VCFSCLFHESCL	0.726 ± 0.042
VCFSPVARRDVY	0.771 ± 0.049
VCFVGGGGSCRD	0.635 ± 0.068
VCGLGGGQWQGV	0.729 ± 0.028
VCGNRLSATAIT	0.684 ± 0.084
VCGQRLKDVGVG	0.499 ± 0.037
VCHYKVSFSCLL	0.64 ± 0.044
VCIGGGGVVLGL	0.645 ± 0.04
VCLATPPSTVTP	0.619 ± 0.065
VCLGRSEETLSS	0.608 ± 0.15
VCLRRYGVMADV	0.628 ± 0.015
VCPGMLVYGRGI	0.744 ± 0.092
VCPILMARHCVE	0.691 ± 0.057
VCPSPSTPPGLF	0.695 ± 0.019
VCRSSGSFDLGI	0.774 ± 0.064
VCSFLSVDASPP	0.699 ± 0.018

Sequence	protein stability index
VCTLLWLLSLVS	0.573 ± 0.017
VDEREKGSKQGK	0.689 ± 0.031
VDTGMAAGLTFG	0.685 ± 0.034
VDVHWSVLCPLG	0.851 ± 0.098
VDVSGVCEFVLG	0.706 ± 0.1
VDWLCGGLGGVR	0.742 ± 0.11
VDYARECALIGG	0.782 ± 0.11
VEARKKTLNTGP	0.713 ± 0.033
VEAVSLVFLYGV	0.552 ± 0.012
VEGSRDSLGCMD	0.679 ± 0.03
VEKQFSVWSFRG	0.68 ± 0.031
VELALPRGSTVV	0.6596 ± 0.005
VEMVVEFKFGTS	0.703 ± 0.18
VFCFRFLSFCPW	0.542 ± 0.026
VFCPSPGPLAFA	0.673 ± 0.072
VFCVFACLCIVF	0.522 ± 0.091
VFFLSYGPFLAM	0.5963 ± 0.0038
VFGGAGVGGDCG	0.669 ± 0.012
VFGKGRWDCFLI	0.727 ± 0.073
VFGLVGWCAGDC	0.715 ± 0.094
VFGSGLRATGAV	0.635 ± 0.086
VFKNRWLGGEKV	0.69 ± 0.012
VFLLCSLPTFWR	0.662 ± 0.062
VFLLSPLLVPRD	0.647 ± 0.11
VFLVESFSPPNA	0.701 ± 0.029
VFPLWLRRPFPF	0.695 ± 0.041

Sequence	protein stability index
VFTALALISYMQ	0.5917 ± 0.0022
VFVGLFCVLGRV	0.523 ± 0.0079
VFVRVVGDLRWE	0.578 ± 0.045
VGAGAGGGGWVL	0.782 ± 0.017
VGAGGLWCGGGY	0.83 ± 0.031
VGDCVVRGLWLS	0.639 ± 0.03
VGERGGIGARSG	0.673 ± 0.021
VGFGTGGAVGVE	0.687 ± 0.041
VGFPLVSSPLRL	0.566 ± 0.059
VGGAPLVSACCI	0.596 ± 0.022
VGGEWGLGVRPR	0.703 ± 0.014
VGGGGLSGGAER	0.678 ± 0.0093
VGGGGRRGKVWG	0.649 ± 0.035
VGGIGGWFCRGR	0.73 ± 0.13
VGGKSVVRAESS	0.645 ± 0.013
VGGLGRGTGSGP	0.683 ± 0.096
VGGTSWGIEKSS	0.649 ± 0.052
VGGVGEWCLVRL	0.6746 ± 0.0046
VGGVVGVGSVGV	0.775 ± 0.14
VGGWGGVGTCVW	0.711 ± 0.047
VGHGGCCGWGCG	0.786 ± 0.1
VGKQRISPSSPS	0.664 ± 0.018
VGKRGQRRVARL	0.692 ± 0.021
VGLFGLCRVFGM	0.646 ± 0.023
VGLFMGSPFMET	0.693 ± 0.0087
VGLFRESLFRRG	0.714 ± 0.072

Sequence	protein stability index
VGLSVRFPVANH	0.673 ± 0.037
VGMGAWVQQIVL	0.666 ± 0.043
VGQCVWRVGRSS	0.69 ± 0.044
VGRGGGGWRLEG	0.694 ± 0.078
VGRGGGVWRLEG	0.699 ± 0.045
VGRGGVRRLLQT	0.709 ± 0.037
VGRIGNWRFGAG	0.695 ± 0.0084
VGRVGEGGGGRG	0.679 ± 0.046
VGRWCCELVWGV	0.645 ± 0.022
VGRWVLEARGVV	0.715 ± 0.031
VGSGKYGVVGVG	0.518 ± 0.029
VGSMRRYCRTKI	0.792 ± 0.25
VGSPLSVCLSSR	0.702 ± 0.012
VGSSRRGCSGAE	0.685 ± 0.024
VGVQLLLSAWEK	0.715 ± 0.066
VGVSGVCGDWAM	0.67 ± 0.05
VGVSWSMYCANW	0.631 ± 0.11
VGVVGGSWEVVG	0.685 ± 0.031
VGVWTGGDVDCH	0.777 ± 0.086
VGWLCVLGGAQR	0.762 ± 0.045
VGWRVAVGWGLG	0.691 ± 0.083
VHFISPACSPPT	0.673 ± 0.058
VHLYGRTAGRGV	0.816 ± 0.06
